Read-outs that look alike come from different tables or passages of the source.
Legend:
Gag-CY (HIV-1) [1] = assay: split reporter (BiFC, NanoBiT); BiFC quantified by flow cytometry: 293T cells co-transfected with 0.25 μg of each BiFC construct and mRFP1, harvested about 14 h after transfection and fixed; percent of mRFP+ cells that are YFP+, and mean intensity of YFP+ cells
Gag-CY (HIV-1) [2] = assay: as above; remark: listed apart in the source

Gag-NY (natural protein)
percent of mRFP+ cells that are YFP+ (BiFC) (Gag-CY (HIV-1) [1]): 3.3% | percent of mRFP+ cells that are YFP+ (BiFC) (Gag-CY (HIV-1) [2]): 3.5%
